In patent US20160279215A1, “NOVEL PEPTIDES AND COMBINATION OF PEPTIDES FOR USE IN IMMUNOTHERAPY AGAINST VARIOUS TUMORS” (immatics biotechnologies GmbH, priority 2015, published 2016):

Each substance was assayed against T1, HLA-A*02:01 (Homo sapiens, UniProt P04439, D140Y/D185E/D98H/E176V/E277Q/G131W/G231S/I119V/I121R/I166T/I218V/L300P/L318F/N151K/N90K/P208A/P217A/Q86G/Q94H/R138H/R169H/T345S) (assay: MHC binding assay: UV-ligand exchange with β2m ELISA (peptide exchange yield)). Conditions: binding to HLA-A*02:01 evaluated by peptide exchange yield (UV-ligand exchange, β2m ELISA).
T1 construct: made in house
Description: Candidate peptides for T cell based therapies according to the present invention were further tested for their MHC binding capacity (affinity). The individual peptide-MHC complexes were produced by UV-ligand exchange, where a UV-sensitive peptide is cleaved upon UV-irradiation, and exchanged with the peptide of interest as analyzed. Only peptide candidates that can effectively bind and stabilize the peptide-receptive MHC molecules prevent dissociation of the MHC complexes. To determine the yield of the exchange reaction, an ELISA was performed based on the detection of the light chain (β2m) of stabilized MHC complexes. The assay was performed as generally described in Rodenko et al. (Rodenko et al., 2006).
96 well MAXISorp plates (NUNC) were coated over night with 2 ug/ml streptavidin in PBS at room temperature, washed 4× and blocked for 1 h at 37° C. in 2% BSA containing blocking buffer. Refolded HLA-A*02:01/MLA-001 monomers served as standards, covering the range of 15-500 ng/ml. Peptide-MHC monomers of the UV-exchange reaction were diluted 100 fold in blocking buffer. Samples were incubated for 1 h at 37° C., washed four times, incubated with 2 ug/ml HRP conjugated anti-β2m for 1 h at 37° C., washed again and detected with TMB solution that is stopped with […]. Absorption was measured at 450 nm. Candidate peptides that show a high exchange yield (preferably higher than 50%, most preferred higher than 75%) are generally preferred for a generation and production of antibodies or fragments thereof, and/or T cell receptors or fragments thereof, as they show sufficient avidity to the MHC molecules and prevent dissociation of the MHC complexes.

Row | Substance | Peptide exchange
1 | 1 (KLQEKIQEL; listed as Homo sapiens) [compound 1] | ++++ (≧75% = ++++)
2 | 3 (RVIDDSLVVGV; listed as Homo sapiens) [compound 3] | +++ (≧50 = +++)
3 | 5 (GLVDIMVHL; listed as Homo sapiens) [compound 5] | +++ (≧50 = +++)
4 | 6 (FLNAIETAL; listed as Homo sapiens) [compound 6] | ++++ (≧75% = ++++)
5 | 10 (QLIEKNWLL; listed as Homo sapiens) [compound 10] | +++ (≧50 = +++)
6 | 12 (RLLDPKTIFL; listed as Homo sapiens) [compound 12] | +++ (≧50 = +++)
7 | 13 (RLHDENILL; listed as Homo sapiens) [compound 13] | +++ (≧50 = +++)
8 | 16 (SLADLSLLL; listed as Homo sapiens) [compound 16] | +++ (≧50 = +++)
9 | 18 (KTASINQNV; listed as Homo sapiens) [compound 18] | ++ (≧20% = ++)
10 | 19 (KVFELDLVTL; listed as Homo sapiens) [compound 19] | ++ (≧20% = ++)
11 | 20 (ALVEKGEFAL; listed as Homo sapiens) [compound 20] | ++ (≧20% = ++)
12 | 21 (YLMDDFSSL; listed as Homo sapiens) [compound 21] | +++ (≧50 = +++)
13 | 22 (LMYPYIYHV; listed as Homo sapiens) [compound 22] | +++ (≧50 = +++)
14 | 23 (ALLSPLSLA; listed as Homo sapiens) [compound 23] | +++ (≧50 = +++)
15 | 24 (KVWSDVTPL; listed as Homo sapiens) [compound 24] | +++ (≧50 = +++)
16 | 25 (LLWGHPRVALA; listed as Homo sapiens) [compound 25] | +++ (≧50 = +++)
17 | 26 (VLDGKVAVV; listed as Homo sapiens) [compound 26] | +++ (≧50 = +++)
18 | 28 (IKVTDPQLLEL; listed as Homo sapiens) [compound 28] | ++ (≧20% = ++)
19 | 30 (IITEVITRL; listed as Homo sapiens) [compound 30] | +++ (≧50 = +++)
20 | 31 (GLLETTGLLAT; listed as Homo sapiens) [compound 31] | +++ (≧50 = +++)
21 | 33 (TLDRNSLYV; listed as Homo sapiens) [compound 33] | ++ (≧20% = ++)
22 | 34 (TLNTLDINL; listed as Homo sapiens) [compound 34] | +++ (≧50 = +++)
23 | 36 (TVLQELINV; listed as Homo sapiens) [compound 36] | +++ (≧50 = +++)
24 | 37 (QIVELIEKI; listed as Homo sapiens) [compound 37] | ++ (≧20% = ++)
25 | 38 (VLQQESNFL; listed as Homo sapiens) [compound 38] | ++ (≧20% = ++)

Row | Substance | Peptide exchange
26 | 39 (YLEDGFAYV; listed as Homo sapiens) [compound 39] | +++ (≧50 = +++)
27 | 40 (KIWEELSVLEV; listed as Homo sapiens) [compound 40] | +++ (≧50 = +++)
28 | 41 (IVTEIISEI; listed as Homo sapiens) [compound 41] | +++ (≧50 = +++)
29 | 42 (KQMSISTGL; listed as Homo sapiens) [compound 42] | ++ (≧20% = ++)
30 | 44 (AVFNLVHVV; listed as Homo sapiens) [compound 44] | +++ (≧50 = +++)
31 | 45 (FLPVSVVYV; listed as Homo sapiens) [compound 45] | +++ (≧50 = +++)
32 | 47 (GLNGFNVLL; listed as Homo sapiens) [compound 47] | +++ (≧50 = +++)
33 | 49 (KLIGNIHGNEV; listed as Homo sapiens) [compound 49] | ++ (≧20% = ++)
34 | 51 (LDSEALLTL; listed as Homo sapiens) [compound 51] | ++ (≧20% = ++)
35 | 52 (TIGIPFPNV; listed as Homo sapiens) [compound 52] | ++ (≧20% = ++)
36 | 53 (AQHLSTLLL; listed as Homo sapiens) [compound 53] | + (≧10% = +)
37 | 54 (YLVPGLVAA; listed as Homo sapiens) [compound 54] | +++ (≧50 = +++)
38 | 55 (HLFDKIIKI; listed as Homo sapiens) [compound 55] | +++ (≧50 = +++)
39 | 57 (TLYPGRFDYV; listed as Homo sapiens) [compound 57] | ++ (≧20% = ++)
40 | 58 (HLLGEGAFAQV; listed as Homo sapiens) [compound 58] | +++ (≧50 = +++)
41 | 59 (ALADGIKSFLL; listed as Homo sapiens) [compound 59] | +++ (≧50 = +++)
42 | 60 (YLFSQGLQGL; listed as Homo sapiens) [compound 60] | +++ (≧50 = +++)
43 | 61 (ALYPKEITL; listed as Homo sapiens) [compound 61] | +++ (≧50 = +++)
44 | 62 (SLVENIHVL; listed as Homo sapiens) [compound 62] | +++ (≧50 = +++)
45 | 63 (KLLPMVIQL; listed as Homo sapiens) [compound 63] | +++ (≧50 = +++)
46 | 64 (SLYAGSNNQV; listed as Homo sapiens) [compound 64] | ++ (≧20% = ++)
47 | 65 (SLSEKSPEV; listed as Homo sapiens) [compound 65] | ++ (≧20% = ++)
48 | 67 (FLIENLLAA; listed as Homo sapiens) [compound 67] | +++ (≧50 = +++)
49 | 68 (QLMNLIRSV; listed as Homo sapiens) [compound 68] | +++ (≧50 = +++)
50 | 69 (LKVLKADVVL; listed as Homo sapiens) [compound 69] | ++ (≧20% = ++)

Row | Substance | Peptide exchange
51 | 70 (GLTEKTVLV; listed as Homo sapiens) [compound 70] | ++ (≧20% = ++)
52 | 71 (HMSGKLTNV; listed as Homo sapiens) [compound 71] | ++ (≧20% = ++)
53 | 72 (VLSTRVTNV; listed as Homo sapiens) [compound 72] | ++ (≧20% = ++)
54 | 74 (GLAFLPASV; listed as Homo sapiens) [compound 74] | ++ (≧20% = ++)
55 | 75 (ALLDGALQL; listed as Homo sapiens) [compound 75] | +++ (≧50 = +++)
56 | 76 (FTAEFLEKV; listed as Homo sapiens) [compound 76] | +++ (≧50 = +++)
57 | 79 (TVLEEIGNRV; listed as Homo sapiens) [compound 79] | ++ (≧20% = ++)
58 | 80 (VLTGQVHEL; listed as Homo sapiens) [compound 80] | +++ (≧50 = +++)
59 | 81 (ILAEEPIYI; listed as Homo sapiens) [compound 81] | ++ (≧20% = ++)
60 | 82 (ILAEEPIYIRV; listed as Homo sapiens) [compound 82] | +++ (≧50 = +++)
61 | 83 (GLLENSPHL; listed as Homo sapiens) [compound 83] | ++ (≧20% = ++)
62 | 84 (FLLEREQLL; listed as Homo sapiens) [compound 84] | ++++ (≧75% = ++++)
63 | 85 (KLLDKPEQFL; listed as Homo sapiens) [compound 85] | ++ (≧20% = ++)
64 | 86 (SLFSNIESV; listed as Homo sapiens) [compound 86] | +++ (≧50 = +++)
65 | 87 (KLLSLLEEA; listed as Homo sapiens) [compound 87] | +++ (≧50 = +++)
66 | 88 (LLLPLELSLA; listed as Homo sapiens) [compound 88] | +++ (≧50 = +++)
67 | 90 (AILNVDEKNQV; listed as Homo sapiens) [compound 90] | ++ (≧20% = ++)
68 | 91 (LLPSIFLMV; listed as Homo sapiens) [compound 91] | ++ (≧20% = ++)
69 | 93 (RLYGYFHDA; listed as Homo sapiens) [compound 93] | ++ (≧20% = ++)
70 | 94 (YLDEVAFML; listed as Homo sapiens) [compound 94] | +++ (≧50 = +++)
71 | 95 (KLIDEDEPLFL; listed as Homo sapiens) [compound 95] | +++ (≧50 = +++)
72 | 96 (ALDTTRHEL; listed as Homo sapiens) [compound 96] | ++ (≧20% = ++)
73 | 98 (FVQEKIPEL; listed as Homo sapiens) [compound 98] | +++ (≧50 = +++)
74 | 99 (TLFGIQLTEA; listed as Homo sapiens) [compound 99] | +++ (≧50 = +++)
